Key:
Experiment in all cases: potentiometry
Conditions in all cases: 298 K; 0.1 M NaClO4; metal-free peptide, random coil
Glu7 (position 7, …) [1] = biological target: Glu7 (position 7, …)
Glu7 (position 7, …) [2] = biological target: Glu7 (position 7, …); remark: listed apart in the source
Glu7 (position 7, …) [3] = biological target: Glu7 (position 7, …); remark: listed apart in the source
Glu7 (position 7, …) [4] = biological target: Glu7 (position 7, …); remark: listed apart in the source

Row | Protein | pKa (Glu7 (position 7, …) [2]) | other results
1 | DKPAKAEDHDQHHGHAH [GroEL1 C-terminal tail peptide L4 (H11Q mutant of L2) (Mycobacterium tuberculosis; H11Q)] |  | pKa (Glu7 (position 7, …) [1]): 4.71
2 | DKPAKAEDHDHHHGQAH [GroEL1 C-terminal tail peptide L7 (H15Q mutant of L2) (Mycobacterium tuberculosis; H15Q)] | 4.45 | 
3 | DKPAKAEDHDHHHGHAQ [GroEL1 C-terminal tail peptide L8 (H17Q mutant of L2) (Mycobacterium tuberculosis; H17Q)] | 4.44 | 
4 | DKPAKAEDHDHQHGHAH [GroEL1 C-terminal tail peptide L5 (H12Q mutant of L2) (Mycobacterium tuberculosis; H12Q)] |  | pKa (Glu7 (position 7, …) [3]): 4.36
5 | DKPAKAEDQDHHHGHAH [GroEL1 C-terminal tail peptide L3 (H9Q mutant of L2) (Mycobacterium tuberculosis; H9Q)] |  | pKa (Glu7 (position 7, …) [4]): 4.74
6 | DKPAKAEDHDHHQGHAH [GroEL1 C-terminal tail peptide L6 (H13Q mutant of L2) (Mycobacterium tuberculosis; H13Q)] | 4.96 | 
